Target: the molecule itself
Test: cryo-EM structure

| Protein | stoichiometry N | binding result |
| --- | --- | --- |
| human potassium-chloride co-transporter 3 (KCC3), full length, wild type (natural protein, UniProt Q9UHW9-2 1-1099, looked up, phosphorylated threonine built on T940 and T997 (from the cryo-EM map and mass spectra); carbohydrate chains) MPHFTVTKVEDPEEGAAASISQEPSLADIKARIQDSDEPDLSQNSITGEHSQLLDDGHKKARNAYLNNSNYEEGDEYFDKNLALFEEEMDTRPKVSSLLNRMANYTNLTQGAKEHEEAENITEGKKKPTKTPQMGTFMGVYLPCLQNIFGVILFLRLTWVVGTAGVLQAFAIVLICCCCTMLTAISMSAIATNGVVPAGGSYFMISRALGPEFGGAVGLCFYLGTTFAAAMYILGAIEIFLVYIVPRAAIFHSDDALKESAAMLNNMRVYGTAFLVLMVLVVFIGVRYVNKFASLFLACVIVSILAIYAGAIKSSFAPPHFPVCMLGNRTLSSRHIDVCSKTKEINNMTVPSKLWGFFCNSSQFFNATCDEYFVHNNVTSIQGIPGLASGIITENLWSNYLPKGEIIEKPSAKSSDVLGSLNHEYVLVDITTSFTLLVGIFFPSVTGIMAGSNRSGDLKDAQKSIPIGTILAILTTSFVYLSNVVLFGACIEGVVLRDKFGDAVKGNLVVGTLSWPSPWVIVIGSFFSTCGAGLQSLTGAPRLLQAIAKDNIIPFLRVFGHSKANGEPTWALLLTAAIAELGILIASLDLVAPILSMFFLMCYLFVNLACALQTLLRTPNWRPRFRYYHWALSFMGMSICLALMFISSWYYAIVAMVIAGMIYKYIEYQGAEKEWGDGIRGLSLSAARFALLRLEEGPPHTKNWRPQLLVLLKLDEDLHVKHPRLLTFASQLKAGKGLTIVGSVIVGNFLENYGEALAAEQTIKHLMEAEKVKGFCQLVVAAKLREGISHLIQSCGLGGMKHNTVVMGWPNGWRQSEDARAWKTFIGTVRVTTAAHLALLVAKNISFFPSNVEQFSEGNIDVWWIVHDGGMLMLLPFLLKQHKVWRKCSIRIFTVAQLEDNSIQMKKDLATFLYHLRIEAEVEVVEMHDSDISAYTYERTLMMEQRSQMLRHMRLSKTERDREAQLVKDRNSMLRLTSIGSDEDEETETYQEKVHMTWTKDKYMASRGQKAKSMEGFQDLLNMRPDQSNVRRMHTAVKLNEVIVNKSHEAKLVLLNMPGPPRNPEGDENYMEFLEVLTEGLERVLLVRGGGSEVITIYS | 2 |  |
| KCC3 phosphorylation mimic mutant S45E/T940E/T997E (natural protein, human, UniProt Q9UHW9-2 1-1099, looked up) MPHFTVTKVEDPEEGAAASISQEPSLADIKARIQDSDEPDLSQNEITGEHSQLLDDGHKKARNAYLNNSNYEEGDEYFDKNLALFEEEMDTRPKVSSLLNRMANYTNLTQGAKEHEEAENITEGKKKPTKTPQMGTFMGVYLPCLQNIFGVILFLRLTWVVGTAGVLQAFAIVLICCCCTMLTAISMSAIATNGVVPAGGSYFMISRALGPEFGGAVGLCFYLGTTFAAAMYILGAIEIFLVYIVPRAAIFHSDDALKESAAMLNNMRVYGTAFLVLMVLVVFIGVRYVNKFASLFLACVIVSILAIYAGAIKSSFAPPHFPVCMLGNRTLSSRHIDVCSKTKEINNMTVPSKLWGFFCNSSQFFNATCDEYFVHNNVTSIQGIPGLASGIITENLWSNYLPKGEIIEKPSAKSSDVLGSLNHEYVLVDITTSFTLLVGIFFPSVTGIMAGSNRSGDLKDAQKSIPIGTILAILTTSFVYLSNVVLFGACIEGVVLRDKFGDAVKGNLVVGTLSWPSPWVIVIGSFFSTCGAGLQSLTGAPRLLQAIAKDNIIPFLRVFGHSKANGEPTWALLLTAAIAELGILIASLDLVAPILSMFFLMCYLFVNLACALQTLLRTPNWRPRFRYYHWALSFMGMSICLALMFISSWYYAIVAMVIAGMIYKYIEYQGAEKEWGDGIRGLSLSAARFALLRLEEGPPHTKNWRPQLLVLLKLDEDLHVKHPRLLTFASQLKAGKGLTIVGSVIVGNFLENYGEALAAEQTIKHLMEAEKVKGFCQLVVAAKLREGISHLIQSCGLGGMKHNTVVMGWPNGWRQSEDARAWKTFIGTVRVTTAAHLALLVAKNISFFPSNVEQFSEGNIDVWWIVHDGGMLMLLPFLLKQHKVWRKCSIRIFTVAQLEDNSIQMKKDLATFLYHLRIEAEVEVVEMHDSDISAYTYERELMMEQRSQMLRHMRLSKTERDREAQLVKDRNSMLRLTSIGSDEDEETETYQEKVHMEWTKDKYMASRGQKAKSMEGFQDLLNMRPDQSNVRRMHTAVKLNEVIVNKSHEAKLVLLNMPGPPRNPEGDENYMEFLEVLTEGLERVLLVRGGGSEVITIYS |  | binds |
| KCC3 dephosphorylation mimic mutant S45A/T940V/T997V (natural protein, human, UniProt Q9UHW9-2 1-1099, looked up) MPHFTVTKVEDPEEGAAASISQEPSLADIKARIQDSDEPDLSQNAITGEHSQLLDDGHKKARNAYLNNSNYEEGDEYFDKNLALFEEEMDTRPKVSSLLNRMANYTNLTQGAKEHEEAENITEGKKKPTKTPQMGTFMGVYLPCLQNIFGVILFLRLTWVVGTAGVLQAFAIVLICCCCTMLTAISMSAIATNGVVPAGGSYFMISRALGPEFGGAVGLCFYLGTTFAAAMYILGAIEIFLVYIVPRAAIFHSDDALKESAAMLNNMRVYGTAFLVLMVLVVFIGVRYVNKFASLFLACVIVSILAIYAGAIKSSFAPPHFPVCMLGNRTLSSRHIDVCSKTKEINNMTVPSKLWGFFCNSSQFFNATCDEYFVHNNVTSIQGIPGLASGIITENLWSNYLPKGEIIEKPSAKSSDVLGSLNHEYVLVDITTSFTLLVGIFFPSVTGIMAGSNRSGDLKDAQKSIPIGTILAILTTSFVYLSNVVLFGACIEGVVLRDKFGDAVKGNLVVGTLSWPSPWVIVIGSFFSTCGAGLQSLTGAPRLLQAIAKDNIIPFLRVFGHSKANGEPTWALLLTAAIAELGILIASLDLVAPILSMFFLMCYLFVNLACALQTLLRTPNWRPRFRYYHWALSFMGMSICLALMFISSWYYAIVAMVIAGMIYKYIEYQGAEKEWGDGIRGLSLSAARFALLRLEEGPPHTKNWRPQLLVLLKLDEDLHVKHPRLLTFASQLKAGKGLTIVGSVIVGNFLENYGEALAAEQTIKHLMEAEKVKGFCQLVVAAKLREGISHLIQSCGLGGMKHNTVVMGWPNGWRQSEDARAWKTFIGTVRVTTAAHLALLVAKNISFFPSNVEQFSEGNIDVWWIVHDGGMLMLLPFLLKQHKVWRKCSIRIFTVAQLEDNSIQMKKDLATFLYHLRIEAEVEVVEMHDSDISAYTYERVLMMEQRSQMLRHMRLSKTERDREAQLVKDRNSMLRLTSIGSDEDEETETYQEKVHMVWTKDKYMASRGQKAKSMEGFQDLLNMRPDQSNVRRMHTAVKLNEVIVNKSHEAKLVLLNMPGPPRNPEGDENYMEFLEVLTEGLERVLLVRGGGSEVITIYS |  | binds |
| human potassium-chloride co-transporter 2 (KCC2), full length (natural protein, UniProt Q9H2X9-2 1-1116, looked up) MLNNLTDCEDGDGGANPGDGNPKESSPFINSTDTEKGKEYDGKNMALFEEEMDTSPMVSSLLSGLANYTNLPQGSREHEEAENNEGGKKKPVQAPRMGTFMGVYLPCLQNIFGVILFLRLTWVVGIAGIMESFCMVFICCSCTMLTAISMSAIATNGVVPAGGSYYMISRSLGPEFGGAVGLCFYLGTTFAGAMYILGTIEILLAYLFPAMAIFKAEDASGEAAAMLNNMRVYGTCVLTCMATVVFVGVKYVNKFALVFLGCVILSILAIYAGVIKSAFDPPNFPICLLGNRTLSRHGFDVCAKLAWEGNETVTTRLWGLFCSSRFLNATCDEYFTRNNVTEIQGIPGAASGLIKENLWSSYLTKGVIVERSGMTSVGLADGTPIDMDHPYVFSDMTSYFTLLVGIYFPSVTGIMAGSNRSGDLRDAQKSIPTGTILAIATTSAVYISSVVLFGACIEGVVLRDKFGEAVNGNLVVGTLAWPSPWVIVIGSFFSTCGAGLQSLTGAPRLLQAISRDGIVPFLQVFGHGKANGEPTWALLLTACICEIGILIASLDEVAPILSMFFLMCYMFVNLACAVQTLLRTPNWRPRFRYYHWTLSFLGMSLCLALMFICSWYYALVAMLIAGLIYKYIEYRGAEKEWGDGIRGLSLSAARYALLRLEEGPPHTKNWRPQLLVLVRVDQDQNVVHPQLLSLTSQLKAGKGLTIVGSVLEGTFLENHPQAQRAEESIRRLMEAEKVKGFCQVVISSNLRDGVSHLIQSGGLGGLQHNTVLVGWPRNWRQKEDHQTWRNFIELVRETTAGHLALLVTKNVSMFPGNPERFSEGSIDVWWIVHDGGMLMLLPFLLRHHKVWRKCKMRIFTVAQMDDNSIQMKKDLTTFLYHLRITAEVEVVEMHESDISAYTYEKTLVMEQRSQILKQMHLTKNEREREIQSITDESRGSIRRKNPANTRLRLNVPEETAGDSEEKPEEEVQLIHDQSAPSCPSSSPSPGEEPEGEGETDPEKVHLTWTKDKSVAEKNKGPSPVSSEGIKDFFSMKPEWENLNQSNVRRMHTAVRLNEVIVKKSRDAKLVLLNMPGPPRNRNGDENYMEFLEVLTEHLDRVMLVRGGGREVITIYS | 2 |  |

Source: doi:10.1101/2020.02.22.960815 (bioRxiv, 2020)
